Key:
rat FcεRI (αβγ2) (rat) [1] = assay: IgE rosetting assay on cotransfected COS 7 cells
rat FcεRI (αβγ2) (rat) [2] = assay: IgE rosetting assay, RBL cells (native rat receptor)
rat FcεRI (αβγ2) (rat) [3] = assay: IgE rosetting assay, COS 7 cells cotransfected with α, β and γ cDNAs (29 transfections)
[4] = biological target: COS 7 cells cotransfected with the rat α and β subunits (rat); assay: IgE rosetting assay, COS 7 cells transfected with α and β cDNAs (2 transfections); by the filing no IgE-binding sites reach the surface
[5] = biological target: rat FcεRI α subunit (rat); assay: IgE rosetting assay, COS 7 cells transfected with α cDNA alone (2 transfections); by the filing α does not reach the surface without β and γ
rat FcεRI (αβγ2) (rat) [6] = assay: IgE rosetting assay, cotransfected COS 7 cells; 50 µg/ml rat IgE added 30 minutes before mouse anti-DNP IgE (competitor of mouse anti-DNP IgE)

expression of IgE binding (% of cells) (rat FcεRI (αβγ2) (rat) [1])	IgE Binding (rosettes/cells counted) (rat FcεRI (αβγ2) (rat) [2])	IgE Binding (rosettes/cells counted) (rosettes per 41,238 cells counted) (rat FcεRI (αβγ2) (rat) [3])	IgE Binding (rosettes/cells counted) (rosettes per 3,504 cells counted) [4]	IgE Binding (rosettes/cells counted) (rosettes per 4,050 cells counted) [5]	IgE Binding (rosettes/cells counted) with inhibitor (rosettes per 7,542 cells counted) (rat FcεRI (αβγ2) (rat) [6])	Substance
5%	100%	920	0	0		mouse IgE anti-DNP (antibody)
					0	non-specific rat IgE (antibody)
